Two molecules from patent publication US6447783 (YEDA RESEARCH AND DEVELOPMENT, dated 2002) can be followed below.

In test [1] the target is T1, Recombinant mouse FGF9 (fibroblast growth factor 9) (mouse). Nature of the test: 125I-FGF9 binding to FGFR3 transfected CHO-KI cells at 4 C, in the presence of 1 mg/ml heparin.
Test [2] has as its target T1, Recombinant mouse FGF9 (fibroblast …). Nature of the test: 125I-FGF9 binding to FGFR3 transfected CHO 745 cells at 4 C, in the presence of 1 mg/ml heparin.
For test [3] the target is unchanged. Nature of the test: FGF9 immobilised on heparin-sepharose, bound receptor-AP measured by alkaline phosphatase activity.

B1: Full length mouse FGFR3 expressed in CHO cells (wild type KI and heparan-sulfate deficient 745) (receptor)
chain: EPPGPEQRVVRRAAEVPGPEPSQQEQVAFGSGDTVELSCHPPGGAPTGPTVWAKDGTGLVASHRILVGPQRLQVLNASHEDAGVYSCQHRLTRRVLCHFSVRVTDAPSSGDDEDGEDVAEDTGAPYWTRPERMDKKLLAVPAANTVRFRCPAAGNPTPSISWLKNGKEFRGEHRIGGIKLRHQQWSLVMESVVPSDRGNYTCVVENKFGSIRQTYTLDVLERSPHRPILQAGLPANQTAILGSDVEFHCKVYSDAQPHIQWLKHVEVNGSKVGPDGTPYVTVLKTAGANTTDKELEVLSLHNVTFEDAGEYTCLAGNSIGFSHHSAWLVVLPAEEELMETDEAGSVYAGVLSYGVVFFLFILVVAAVILCRLRSPPKKGLGSPTVHKVSRFPLKRQVSLESNSSMNSNTPLVRIARLSSGEGPVLANVSELELPADPKWELSRTRLTLGKPLGEGCFGQVVMAEAIGIDKDRTAKPVTVAVKMLKDDATDKDLSDLVSEMEMMKMIGKHKNIINLLGACTQGGPLYVLVEYAAKGNLREFLRARRPPGMDYSFDACRLPEEQLTCKDLVSCAYQVARGMEYLASQKCIHRDLAARNVLVTEDNVMKIADFGLARDVHNLDYYKKTTNGRLPVKWMAPEALFDRVYTHQSDVWSFGVLLWEIFTPGGPSPYPGIPVEELFKLLKEGHRMDKPASCTHDLYMIMRECWHAVPSQRPTFKQLVEDLDRILTVTSTDEYLDLSVPFEQYSPGGQDTPSSSSSGDDSVFTHDLLPPGPPSNGGPRT
notes: whole, on cells; also called FGFR3 transfected CHO-KI cells
In the case of B1, the equilibrium dissociation constant (Kd) (as a rule, the equilibrium constant for the complex coming apart) came out at 0.06 nM in test [1] and 0.1 nM in test [2].

B2: Soluble extracellular domain of murine FGFR1 coupled to human placental alkaline phosphatase (receptor)
chain: RPAPTLPEQAQPWGVPVEVESLLVHPGDLLQLRCRLRDDVQSINWLRDGVQLVESNRTRITGEEVEVRDSIPADSGLYACVTSSPSGSDTTYFSVNVSDALPSSEDDDDDDDSSSEEKETDNTKPNRRPVAPYWTSPEKMEKKLHAVPAAKTVKFKCPSSGTPNPTLRWLKNGKEFKPDHRIGGYKVRYATWSIIMDSVVPSDKGNYTCIVENEYGSINHTYQLDVVERSPHRPILQAGLPANKTVALGSNVEFMCKVYSDPQPHIQWLKHIEVNGSKIGPDNLPYVQILKTAGVNTTDKEMEVLHLRNVSFEDAGEYTCLAGNSIGLSHHSAWLTVLEALEERPAVMTSPLYLE
notes: extracellular domain; Collected from conditioned medium of transfected NIH 3T3 cells; also called FGFR1 fusion protein; FGFR-alkaline phosphatase fusion protein; not shown: human placental alkaline phosphatase
On to B2, for which the binding result in test [3] is listed as “no binding”.
